Here are results for 22 sequences from the DeepSol protein solubility set.

The nature of the series: soluble on expression in E. coli; label from the status in PepcDB or PDB records.
Turning to “MGSDKIHHHHHHVSSDQVAVAGNAERLFNGAWYNLFEYGTTYANIGYRALQCQDDMMASDVVSRPKYGFNSSYQFNDVAIPSDGRTSFAWYLIYKTIDNCNTAISIKGDSEELRQAQGQALALRAFCYLHLVQHYQFTYLKDKDAPCVPIYTEPTTSGTKPKGKSTVAQVYQQIFDDLNLAQDYLTNYVRKGDGQKFKPNTDVVNGLMARAYLLTGQWGEAAKAAEAARKGYSLMTTTAEYEGFNNISNKEWIWGSPQTLSQSDASYNFYYLDATYVGAYSSFMADPHLMDTFVKGDIRLPLFQWMREGYLGYKKFHMRSDDTADLVLMRSAEMYLIEAEAKVRDGVALDQAVAPLNTLRTARGVGNYDVTGKTKEQVIDEILMERRRELWGEGFGITDVLRNQKAVERMALSEDMQKTEVDCWQEGGSFAKRNPLGHWFLNFPDGKAFSANSSYYLYAIPEKEINANPNL”, the “soluble on expression in E. coli” value is reported as “not soluble”.

In the case of “MGSDKIHHHHHHMIIHKFIIHVLDKNSDTPILNDFEGRVSQDMDLFFQKKISKVSRDNDIRTAVFNDYSNNLIKKCCEQIIYDESSFLNSSKEIAAYLFDVMKLNATLESCDLAICLYSQKDEKKVAILKLDYNKSYTHSIEFKDDKFNIQMSKNEINIQETKTIKIGAIIGLSGVNDEYHLKVLDKDAEKEEVNSKFVTEFLNATKVKDDKYRTKMFKTFVDAYIANLYSDMKQGEDVRSILLYMLREKQNLDINEFADKAIKDDLKDSFKDHAEEKGIESFNIDKKWVEKNLKNRHIKTDTGFEVKGKMDDFEDFMKYGIRHNGNGTVDIVIKNVNFYDEK”, the “soluble on expression in E. coli” value is reported as “not soluble”.

Turning to “MMVYPVKHSPLLRQPEHFIARDELKALVQKVTHNLVNIKDETGEFLLRLDDGRVIDTKGWAGWEWTHGVGLYGMYHYYQQTGDQTMRKIIDDWFADRFAEGATTKNVNTMAPFLTLAYRYEETRNPAYLPWLETWAEWAMNEMPRTDHGGMQHITLAEENHQQMWDDTLMMTVLPLAKIGKLLNRPEYVEEATYQFLLHVQNLMDKETGLWFHGWSYDGHHNFANARWARGNSWLTIVIPDFLELLDLPENNAVRRYLVQVLNAQIAALAKCQDESGLWHTLLDDPHSYLEASATAGFAYGILKAVRKRYVERHYAQVAEKAIRGIVKHISPEGELLQTSFGTGMGHDLDFYRHIPLTSMPYGQAMAMLCLTEYLRNYF”, the “soluble on expression in E. coli” value was “not soluble”. For “MLPNVAVEFDENSIFRSLGKGNLTFREAFEEIIKFIEADTNSSYRISIGTDSHVGNGTLFVTCIHVHRIGKGAIGFLHKSLMSRPIRNLREKIYMETCMSLQLAYLFDEEKIDRIYKALGKNGKSPTKGVTFEFHIDIGKRGETKALINEMVGMVSGLNFIPKIKPDSYCASCFADRYTKAI”, the “soluble on expression in E. coli” value is “soluble”. The value for “MYLKRPIWSDGASATPENPSESETGEESDAASMVVEELVTSLNTQRLYRELTLSLRTGLRDACAEFSFLRIRGLRSLLKTLRTVADSDSIIRLFSHTQTISDLQLVPVLFQHSLKEAEDDKVTSLDHIFSVEPMKITSPSTDAEVAVALRVLEGCCLLHPQSTVLAHKHGAVRVMMNVLSTRGVLEQGACLDALISVLLDSSANQVDFGACNGIEEVAMLMRDKQADENLSIYTIKIAVNEDSFPFCLFWLRCGEFLLLLVGHVNGKDRSPIASVNEDIRRLLGEKSASLIWAASQFGSTGDPEQRITALHIQAGRVLESLDLY” was “soluble”. Take “MGSDKIHHHHHHMGTHTEAMPSTTFAQTAVLSQRQRATLNALSAFPQGAQVSEIAASLGLHVNTVRGHLEELVTKNLVRTAPLPSTGRGRPVLMYHATSATPETVAQEYLSLISLLIQHIDLRQPDEIDEVAKVLGKQWAHSIFADHHLEELNGEQTLITLINYLRHLGFDPEVEKTQDPTTSMLQLRTCPFGSMAHAPLSFVCRAHEGMLSAVEKTGGISFELTPLSAPHQCSIVAQLHGNETIHRQRGEEHPHAGHR”: the “soluble on expression in E. coli” value is reported as “not soluble”. In the case of “MWDTSKDYRLLVAEKSVELFIRTIEGAKFRGQWDKKRSIQLAKEMIPDIQALRYSYIDPEELVDTPQMKDLKEKAKGIIEALGGEDWHHKFLSQASREDREKVEEQVARIKFFLNTILNLDRRLKLGKINDPVIAVDIVVGEVMSVGKHPSADRLLVTNVNIGERAVTVVTNDLTVKEGNRVAVALLPPRNFFGIVSEGMFLGAGEGVLKNVKGEIGGLPKGIPLEALNETRNAVEAFLKG”, the “soluble on expression in E. coli” value was “soluble”. As for “SESWRSFFKEALQGVGDMGRAYWDIMISNHQNSNRYLYARGNYDAAQRGPGGVWAAKLISRSRVYLQGLIDYYLFGNSSTVLEDSKSNEKAEEWGRSGKDPDRFRPDGLPKKY”, the “soluble on expression in E. coli” value was “soluble”. “MSKFFINPEVLEKYSQKLAEHKSSVNHVRDLVAQADVSDESWGIVGLFVKQSYTEMLGDFKDLLKDMSDGLDSASDKMMSATRAYREIEEENRRILVEITRRINAAKIKNITS”: the “soluble on expression in E. coli” value was “not soluble”. Turning to “MSLADFLRHRREALRPEDVGLSPGARRRARGLRREEVAALALMSTDYYTRLEQRRGPQPSERMLDSLARALRLTRAERDYLYRVAGHNAPASLSDPSPVAPALLRVLDRLDDTPALILTELGETLVQNRMAVALFGDASRHTGLARSAVYRWFTDPSERSVYPESDWGRQSRAQVANLRAAYGMRGARSHAGALVRILQQSNEEFAELWERHEVAQRFEDHKTLIHPEVGAIEVDCQALFTEDQSQTLLVLTAPPRTESHEKLQLLAVLGLHRFTEAEDQVREGHHHHHH”, the “soluble on expression in E. coli” value is “not soluble”.

With “MVAKISVGSSLFGALSYNQNKVDEEQGKVLLSNRMFESEDGNFSIRRCMECFDIHLPADLKTEKPIIHISLNPHPDDVLLDSQLADIAKEYMDKLGYGNQPYIVYKHEDIARHHIHIVSIRVDDTGKKINDKFEHIRSKQITRELEQKYGLHPAEKKQAAERPELKKVDYRAGDVKHQLSNTVKALASSYRFQSFTEYKALLSIYNVQAEEVKGEVNGKPYNGIVYSATNDKGEKQGNPFKSSSLGKSVGYEAIQRHIKKSTKDIQGKNLKERTRRTVGAVMKSTYNRKELEQELKKKGIDVLFRQNDTGRIYGVTFIDHENRTVLNGSRLGKDFSANVFNNLFSGSRTLTGNSKQEMQEHTPEFNSTGHLENTGKTIAGLFSLLSGGNDTPPDNSQVPPSKKRKKKKQRRILEHHHHHH”, the “soluble on expression in E. coli” value is listed as “not soluble”.

In the case of “MGSDKIHHHHHHMKLNTLLQRLDQTVPLAFDTSLQNPEITSLQFDDDTTLSLHPTSLYLAVSADQTITLKGSVGKTAQLSLCAQMQLKNESQLAQLFDRAGCLLTSETSLQAQVNQLAIKAITEDFDTILNQAARTLGNPLIVLDLVGQPVAQSTQAPAISDLTAPAITSVQVQQALKKFRPAKDLIPQVILIQQSQLPLLLLCLPLAYRNNALGYLVMPACVRPLTAEQTAFFKAEAKIITSSLIKNRMMPTAASKRDQLLTMLLTEQQSGTFAAQFAKEHATLPTSMVLIKGEPRAGQSLAALKERLKYLLTPLFSQTLITLYHHQCLALVSVDLPTYNNPEFKADLATIADRANCRLIVSNQYTRPEDTIAAYAVCSRTAKLKSQPTHVTMCEDAFFDLMLAQVDHAEILPFFINPAVKALMDHDAENKTELLPTLDAYLESGENLTHTARQLFIHLNTLRYRLKHISDITGIDLKDAETCFKLGASFKVRRYLNHNKLTFTR”, the “soluble on expression in E. coli” value is “not soluble”.

Take “AKQAAQSTFNSFHEWAKQAEAMRNPSRMDIYKIYKQDAPHSHPMSDEQQEEFLHTLKALNGKNGIEVRTQDHDSVRNKKDRNLDKYIAESPDAKRFFYRIIPKHERREDKNQGRLTIGVQPQYATQLTRAMATLIGKESAITHGKVIGPACHGQMTDSAVLYINGDVAKAEKLGEKLKQMSGIPLDAFVEHTPLSMQSLSKGLSYAESILGDTRGHGMSRAEVISDALRMDGMPFLARLKLSLSANG”: the “soluble on expression in E. coli” value was “not soluble”. “SLHIDVNNALNRAELVHSALFHEVDAIDSFCADWAEWDDTYNFVLNRNMDYVESNLVDETFPTLNVNYIVYLDRNGEVVLAKGYDLENETAMNPSQPLIERFRELSARNDLDVKKGFLRFDNSIYAFSARPILRSDETGPYAGTLIFARIVDDSFIQSPSKIAGLSFKILPVPKEKSVKFVNESALLVEFPLEDYSGRVVGTIEFYAEREALG”: the “soluble on expression in E. coli” value is “soluble”. The value for “MKAFEFLYEDFQRGLTVVLDKGLPPKFVEDYLKVCGDYIDFVKFGWGTSAVIDRDVVKEKINYYKDWGIKVYPGGTLFEYAYSKGKFDEFLNECEKLGFEAVEISDGSSDISLEERNNAIKRAKDNGFMVLTEVGKKMPDKDKQLTIDDRIKLINFDLDAGADYVIIEGRESGKGKGLFDKEGKVKENELDVLAKNVDINKVIFEAPQKSQQVAFILKFGSSVNLANIAFDEVISLETLRRGLRGDTFGKV” was “soluble”. The value for “MSDVPDDANAGCPGTGSAGAGKASGCAGCPNQGSCATGQGPPPDADVPKIQDRFSRIKHKILILSGKGGVGKSTLTSNLARALASDPSKQVAILDVDICGPSQPRMMGVEDEEVHNSADGWTPVGIQPNLTLMSIAFLLGDKNDAVIWRGARKNGMIKQFLKDVDWGEVDYLLIDTPPGTSDEHISLVQFLLQAGPLDGALIVSTPQEVSLLDVRKEVSFCVKTKVPILGVVENMARFVCPNCAHTTLLFPTSTGGAEQMCKDSNLELLAQLPLEPALAKALDNGEDFFETNPDSTLAKSFLDLAEKVKAKLV” was “not soluble”; that for “EYKPKKGLASCWLSSKSHTLLNEEDFFTKDERIGIRKDYEGATNDDAFFCQRYYRFKNFKEVEGEKTKVCKQPPVREHDFCFAVLLETHRDIKHEELNKRIVYLGGERQPFLMDLMEVSEETFKLNIESSTLTSDEKHYTVVLLSDAMIEPKLLEGVKFASTEVKDFACLLTHVGTRRFYNKKKKREEQNIEEVETALSHQHELYARGSVFYFDTKEQANQFCEDLEKVPNFHTIGYNHAIIIEPTKTKK” was “not soluble”; that for “MKALTYHGPHHVKVENVPDPGIEQPDDIILRVTATAICGSDLHLYRGKIPQVKHGDIFGHEFMGEVVETGHDVKNIRKGDRVVIPFVIACGDCFFCRLQQYSACENTNDGHGAAMNKKQIPPPAALFGYSHLYGGVPGGQAEYVRVPKGNVGPFKVPPLLSDDKALFLSDILPTAWQAAKNAQIQQGFSVAVFGAGPVGLLTIACARLLGAEQIFVVDHHAWRLRFAEERYGAIPINFDDENDPAEKIIEQTAGHRGVDAVIDAVGFEAKGSLTETVLTNLKLEGSSGKALRQCIAAVRRGGVVSVPGVYAGFIHGFLFGDAFDKGLTFKMGQTHVHAWLGELLPLIEKGLLKPEEIVTHYMPFEEAARGYEIFEKREEECRKVILVPGATSAQAAQKQATGVVNPMPGGVV” was “not soluble”. For “MSEIIVYTQNDCPPCTFVKNYLNEHQIDFEERNINNQQYRNEMIDFDAFSTPFILLNGNPMYHVDLDEINKVLNIQD”, the “soluble on expression in E. coli” value is “not soluble”. For “GASMDAIKKKMQMLKLDKENALDRAEQAEADKDFYFGKLRNIELICQENEGENDPVLQRIVDILYATDEGFVIPD” the value was “soluble”; for “SNASNAVKRKGVEVIIALDISNSMLAQDVQPSRLEKAKRLISRLVDELDNDKVGMIVFAGDAFTQLPITSDYISAKMFLESISPSLISKQGTAIGEAINLATRSFTPQEGVGRAIIVITDGENHEGGAVEAAKAAAEKGIQVSVLGVGMPEGAPIPVEGTNDYRRDREGNVIVTRLNEGMCQEIAKDGKGIYVRVDNSNSAQKAISQEISKMAKSDVE”, “soluble”; for “SLHAQTFHSDSLLSQEEAAAAGDRRPAPDTWIYPLIQMKPFEIQIDEIVTETLLMEAERGAKVFLTTGYFNLTQAYMDLVLGTRAEYQILLASPEVNGFFGAKGVAGAIPAAYVHIERQFYSEVCSLGQQDRVQLQEYWRRGWTFHAKGLWLYLAGSSLPCLTLIGSPNFGYRSVHRDLEAQIAIVTESRSLQQQLHQEQEQLYLRSGVVTSATFEQPGRQVKLWVKMVTPLIKNFF”, “soluble”.
